These results are taken from patent US8951961B2, “Structural and mechanistic basis for novel compound biosynthesis using 4-electron hexose oxidase” (Academia Sinica, priority 2009, dated 2015).

The MIC is the lowest concentration found to suppress growth.

Numbering of substitutions follows the chain as printed. In names and notes the source's numbering stands. In brackets after ≈: the same amount, converted by molar mass. Where only a bound is given, the exact number is not on record here.

In one series the test system is E. faecalis ATCC 700221. Kind of series: Minimum Inhibition Concentrations (MICs) Test. In kind it is cell-based, Enterococcus Faecalis.
In another series the test system is E. faecalis ATCC 51299. In words: Minimum Inhibition Concentrations (MICs) Test. Type of series: cell-based, Enterococcus Faecalis.
The next series relates to E. faecalis ATCC 51559. Kind of series: Minimum Inhibition Concentrations (MICs) Test. In kind it is cell-based, Enterococcus Faecalis.
Another series relates to S. Aureus ATCC 29213. In words: Minimum Inhibition Concentrations (MICs) Test. In kind it is cell-based, Staphylococcus Aureus.
The subject of a further series is E. faecalis ATCC 29302. In words: Minimum Inhibition Concentrations (MICs) Test. In kind it is cell-based, Enterococcus Faecalis.
In another series the test system is S. Aureus ATCC 700699. Kind of series: Minimum Inhibition Concentrations (MICs) Test. Type of series: cell-based, Staphylococcus Aureus.
The next series relates to E. faecalis ATCC 33186. In words: Minimum Inhibition Concentrations (MICs) Test. In kind it is cell-based, Enterococcus Faecalis.
For another series, the system named is E. faecalis (ATCC 51559). Kind of series: In vivo animal study, sepsis in mice. The following applies: 10 mg/kg/dose i.v. twice a day, day 1 to day 3. More on the design: species or system ICR female mice. As to the method:
12 ICR female mice with an average body weight of 27 g to 30 g were used in this experiment. Mice had free access to water and food at all time. Sepsis was induced in mice by intravenous (i.v.) injection of […] cfu/mouse of E. faecalis (ATCC 51559) on day 0. The mice were randomized into the following four treatment groups at the start of the experiment:
Each mouse received 10 mg/kg/dose of the medication by intravenous route, twice a day from day 1 to day 3, for a total of 6 doses. Mice were anesthetized and blood was taken from the orbital sinus on day 1, day 2, and day 3. The blood sample was diluted with PBS, plated on Brain Heart infusion agar (BHI agar; Difico, Detroit, Mich., USA) and cultured for colony formation unit.
Data were expressed as mean±SD and the statistical analysis was performed using SigmaStat®. Differences were considered to be significant if the P value was <0.05.

In a further series the test system is Dbv29. Kind of series: Relative enzymatic activities of Dbv29 mutants. Type of series: biochemical, Nonomuraea sp. ATCC39727. The conditions noted are these: relative to WT.

Take `CN[C@H](CC(C)C)C(=O)N[C@H]1C(=O)N[C@@H](CC(N)=O)C(=O)N[C@H]2C(=O)N[C@H]3C(=O)N[C@H](C(=O)N[C@H](C(=O)O)c4cc(O)cc(O)c4-c4cc3ccc4O)[C@H](O)c3ccc(c(Cl)c3)Oc3cc2cc(c3O[C@@H]2O[C@H](CO)[C@@H](O)[C@H](O)[C@H]2O[C@H]2C[C@](C)(N)[C@H](O)[C@H](C)O2)Oc2ccc(cc2Cl)[C@H]1O` [Compound 1, vancomycin]: the MIC against E. faecalis ATCC 700221 (Enterococcus faecalis, ATCC700221) was > 64 µg/mL; in the series on E. faecalis ATCC 51299 (Enterococcus faecalis, ATCC 51299 / VRE), > 64 µg/mL; in the series on E. faecalis ATCC 51559 (Enterococcus faecalis, ATCC 51559 / VRE), > 32 µg/mL; with S. Aureus ATCC 29213 (Staphylococcus aureus, ATCC29213), 1 µg/mL (≈ 0.69 µM); against E. faecalis ATCC 29302 (Enterococcus faecalis, ATCC29302), 1 µg/mL (≈ 0.69 µM); against S. Aureus ATCC 700699 (Staphylococcus aureus, ATCC700699), 16 µg/mL (≈ 11 µM). For the same molecule, in the series on E. faecalis ATCC 33186 (Enterococcus faecalis, ATCC33186), the MIC was determined as 4 µg/mL (≈ 2.76 µM). For the same molecule, the “whole blood bacterial counts over the 3-day period” value in the series with E. faecalis (ATCC 51559) is “suppressed”.
On to Teicoplanin [Compound 4], for which the MIC in the series with E. faecalis ATCC 700221 (E. faecalis ATCC 700221, resistant to vancomycin) is >32 µg/mL; in the series with E. faecalis ATCC 51299 (E. faecalis ATCC 51299, low level VRE), 0.5 µg/mL; against E. faecalis ATCC 51559 (E. faecalis ATCC 51559, multidrug-resistant strain (VRE)), >32 µg/mL; in the series with S. Aureus ATCC 29213 (S. Aureus ATCC 29213, methacillin-sensitive strain) it was 0.5 µg/mL; against E. faecalis ATCC 29302 (E. faecalis ATCC 29302, standard strain, no growth in duplicate) it was 0.125 µg/mL; in the series on S. Aureus ATCC 700699 (S. Aureus ATCC 700699, resistant to methacillin, reduced vancomycin susceptibility), 8 µg/mL. Further, the MIC in the series on E. faecalis ATCC 33186 (E. faecalis ATCC 33186, antibiotics sensitive strain) stood at 0.25 µg/mL. Further, in the series on E. faecalis (ATCC 51559), the “whole blood bacterial counts over the 3-day period” value is “suppressed”.

B1: I401W (protein)
chain: MTGGTGADAASAGASSTRPELRGERCLPPAGPVKVTPDDPRYLNLKLRGANSRFNGEPDYIHLVGSTQQVADAVEETVRTGKRVAVRSGGHCFEDFVDNPDVKVIIDMSLLTEIAYDPSMNAFLIEPGNTLSEVYEKLYLGWNVTIPGGVCGGVGVGGHICGGGYGPLSRQFGSVVDYLYAVEVVVVNKQGKARVIVATRERDDPHHDLWWAHTGGGGGNFGVVTKYWMRVPEDVGRNPERLLPKPPATLLTSTVTFDWAGMTEAAFSRLLRNHGEWYERNSGPDSPYTGLWSQLMIGNEVPGMGESGFMMPIQVDATRPDARRLLDAHIEAVIDGVPPAEVPEPIEQRWLASTPGRGGRGPASKTKAGYLRKRLTDRQIQAVYENMTHMDGIDYGAVWLWGYGGKVNTVDPAATALPQRDAILKVNYITGWANPGNEAKHLTWVRKLYADVYAETGGVPVPNDVSDGAYINYPDSDLADPGLNTSGVPWHDLYYKGNHPRLRKVKAAYDPRNHFHHALSIRP
B1: in the series on Dbv29, the Relative activity is listed as 0.02.

B2: Y453F (protein)
chain: B1 chain with W401I, Y453F
B2: in the series with Dbv29, the Relative activity came out at 0.82.

B3: Y473F (protein)
chain: B1 chain with W401I, Y473F
The molecule B3 came in with a Relative activity with Dbv29 of 0.23.

B4: Y370F/Y403F (protein)
chain: B1 chain with Y370F, W401I, Y403F
Take B4: in the series with Dbv29, the Relative activity is 0.05.

B5: S364R (protein)
chain: B1 chain with S364R, W401I
In the series on Dbv29, B5 displayed a Relative activity of 0.08.

B6: Y165W (protein)
chain: B1 chain with Y165W, W401I
In turn, B6 gave a Relative activity in the series on Dbv29 of 0.03.

B7: R360L (protein)
chain: B1 chain with R360L, W401I
On to B7, for which the Relative activity in the series on Dbv29 is recorded as 0.23.

B8: C92A (protein)
chain: B1 chain with C92A, W401I
B8 gave a Relative activity in the series with Dbv29 of 0.95.

B9: Y403F (protein)
chain: B1 chain with W401I, Y403F
B9: the Relative activity in the series with Dbv29 came to 0.65.

B10: Y428F (protein)
chain: B1 chain with W401I, Y428F
In the series with Dbv29, B10 yielded a Relative activity of 1.00.

B11: C26A (protein)
chain: B1 chain with C26A, W401I
Consider B11, for which the Relative activity with Dbv29 is 1.11.

B12: Y470F (protein)
chain: B1 chain with W401I, Y470F
Take B12: the Relative activity in the series with Dbv29 was 0.21.

B13: Y165F (protein)
chain: B1 chain with Y165F, W401I
In turn, B13 yielded a Relative activity in the series with Dbv29 of 0.70.

B14: Y428F/Y453F (protein)
chain: B1 chain with W401I, Y428F, Y453F
In the series on Dbv29, B14 came in with a Relative activity of 1.08.

B15: R41A/N44A (protein)
chain: B1 chain with R41A, N44A, W401I
B15: the Relative activity in the series with Dbv29 was found to be 0.59.

B16: R360L/T366E (protein)
chain: B1 chain with R360L, T366E, W401I
In the series on Dbv29, B16 gave a Relative activity of 0.01.

B17: S364K (protein)
chain: B1 chain with S364K, W401I
The molecule B17 had a Relative activity in the series on Dbv29 of 0.04.

B18: Y370F (protein)
chain: B1 chain with Y370F, W401I
As for B18, the Relative activity with Dbv29 is 0.10.

B19: R360E (protein)
chain: B1 chain with R360E, W401I
In the series with Dbv29, B19 returned a Relative activity of 0.76.

B20: T366L (protein)
chain: B1 chain with T366L, W401I
On to B20, for which the Relative activity in the series with Dbv29 stood at 0.13.

B21: N44A (protein)
chain: B1 chain with N44A, W401I
Molecule B21 returned a Relative activity in the series with Dbv29 of 0.87.

B22: R360E/T366E (protein)
chain: B1 chain with R360E, T366E, W401I
In the case of B22, the Relative activity in the series with Dbv29 was found to be 0.03.

B23: R360L/T366A (protein)
chain: B1 chain with R360L, T366A, W401I
Turning to B23, the Relative activity with Dbv29 is given as 0.03.

B24: R41A (protein)
chain: B1 chain with R41A, W401I
Consider B24, for which the Relative activity in the series on Dbv29 worked out at 0.72.
